Measured values as given in the supplement of paper PMC10065799, “High-throughput profiling of sequence recognition by tyrosine kinases and SH2 domains using bacterial peptide display” (eLife, 2023).

Test system: AncSZ
Assay: phosphorylation enrichment, bacterial display (enrichment ratio); higher = better substrate or ligand; peptides without Tyr show the background
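Note: 11-residue human phosphosite peptides and single-mutation variants displayed on the E. coli surface, counted by deep sequencing, each peptide's frequency after selection divided by its frequency in the unselected input library; frequency after pTyr selection over input frequency; kinase dosed for 20-30% of maximal phosphorylation in three min.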

Row | Sequence | phosphorylation enrichment
1 | SRGLAYPARPA [LEMD2_Y122] | 0.359
2 | LMIKEYLTKEL [BAG3_Y457_E455K] | 0.867
3 | HSGIYYKPESL [L2HGDH_Y103] | 1.59
4 | ELTSVYDSRAR [SENP1_Y349] | 0.585
5 | CEDGNYSPEIS [PTDSS1_Y424_T423N] | 1.18
6 | YVPSFYHAFSG [ACTN4_Y265_S262P] | 0.81
7 | QRCFVYFFSFL [PTEN_Y176_R173C_YF] | 1.48
8 | KKHIPYSEHKS [CSNK1G2_Y206_R207S] | 0.718
9 | QISRDYGVLLE [PRDX3_Y172] | 0.922
10 | SAEKAYHEQFS [TUBA1A_Y282_L286F] | 0.664
11 | TIAIRYSHSRR [ACOXL_Y260] | 0.746
12 | SLDLSYYTTSS [EMD_Y181_P183T] | 0.921
13 | GTYEDYVEGLR [MYL6_Y89] | 1.31
14 | VFLARYGPAWR [CYP2D6_Y124] | 1.12
15 | KKYPDYIQIAR [SGMS2_Y59_M64R] | 0.98
16 | IYHLSYHHNCE [PDE6B_Y227_L228H] | 1.29
17 | VAVVDYVEPSP [TXNRD2_Y70] | 1.35
18 | HPYNSYTYPRL [PAK5_Y316_S312P] | 1.2
19 | EKQARYEIVEE [CDH5_Y223_V227E] | 1.2
20 | RASGIYFVPKG [APBB1IP_Y340_YF] | 1.17
21 | YRVAGYKTQGG [TIA1_Y383_E384K] | 0.509
22 | ALEKTYNTYRS [B4GALNT2_Y538] | 0.568
23 | GKTQQYDCKWY [BCR_Y751] | 0.864
24 | GLCSYYETSKM [MAGED2_Y449_R446C] | 1.39
25 | ILGRFYERGSI [PAX5_Y73_T75R_YF] | 0.651
26 | GIADDYDKKKL [EIF1_Y54] | 0.882
27 | HQEPVYSVAFS [TBL1X_Y509] | 4.16
28 | VTRLRYPVCFG [ITK_Y336] | 0.815
29 | QRIHNYYEHRY [HCN4_Y554_D553N] | 1.36

Biological target: Fes (UniProt P07332)
Sequence (P07332 whole entry, looked up): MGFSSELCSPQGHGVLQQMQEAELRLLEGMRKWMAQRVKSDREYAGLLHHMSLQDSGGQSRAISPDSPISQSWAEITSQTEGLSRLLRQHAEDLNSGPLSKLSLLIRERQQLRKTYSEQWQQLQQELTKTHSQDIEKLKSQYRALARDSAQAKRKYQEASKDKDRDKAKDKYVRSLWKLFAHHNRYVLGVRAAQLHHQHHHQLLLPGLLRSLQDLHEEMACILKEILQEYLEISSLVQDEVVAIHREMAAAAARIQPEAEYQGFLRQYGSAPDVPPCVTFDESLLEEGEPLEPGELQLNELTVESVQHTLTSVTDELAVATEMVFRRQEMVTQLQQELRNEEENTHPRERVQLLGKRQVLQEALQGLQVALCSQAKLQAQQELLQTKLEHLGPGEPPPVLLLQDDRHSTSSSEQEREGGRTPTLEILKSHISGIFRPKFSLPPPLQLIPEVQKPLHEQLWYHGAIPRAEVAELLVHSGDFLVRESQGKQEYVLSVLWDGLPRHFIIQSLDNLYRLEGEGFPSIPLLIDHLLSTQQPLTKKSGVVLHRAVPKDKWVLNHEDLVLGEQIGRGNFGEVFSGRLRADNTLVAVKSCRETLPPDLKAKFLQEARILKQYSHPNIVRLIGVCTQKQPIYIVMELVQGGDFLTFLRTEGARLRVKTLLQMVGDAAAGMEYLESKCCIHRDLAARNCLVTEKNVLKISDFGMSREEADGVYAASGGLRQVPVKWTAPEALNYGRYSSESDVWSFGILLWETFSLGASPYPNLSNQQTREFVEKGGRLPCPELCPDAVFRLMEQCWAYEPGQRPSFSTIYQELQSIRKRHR
Assay: as above

Row | Sequence | phosphorylation enrichment
30 | SRGLAYPARPA [LEMD2_Y122] | 0.419
31 | LMIKEYLTKEL [BAG3_Y457_E455K] | 1.36
32 | HSGIYYKPESL [L2HGDH_Y103] | 0.984
33 | ELTSVYDSRAR [SENP1_Y349] | 0.624
34 | CEDGNYSPEIS [PTDSS1_Y424_T423N] | 1.06
35 | YVPSFYHAFSG [ACTN4_Y265_S262P] | 0.99
36 | QRCFVYFFSFL [PTEN_Y176_R173C_YF] | 2.21
37 | KKHIPYSEHKS [CSNK1G2_Y206_R207S] | 1.52
38 | QISRDYGVLLE [PRDX3_Y172] | 1.04
39 | SAEKAYHEQFS [TUBA1A_Y282_L286F] | 0.701
40 | TIAIRYSHSRR [ACOXL_Y260] | 0.918
41 | SLDLSYYTTSS [EMD_Y181_P183T] | 1.12
42 | GTYEDYVEGLR [MYL6_Y89] | 1.22
43 | VFLARYGPAWR [CYP2D6_Y124] | 1.21
44 | KKYPDYIQIAR [SGMS2_Y59_M64R] | 0.984
45 | IYHLSYHHNCE [PDE6B_Y227_L228H] | 1.34
46 | VAVVDYVEPSP [TXNRD2_Y70] | 0.974
47 | HPYNSYTYPRL [PAK5_Y316_S312P] | 0.875
48 | EKQARYEIVEE [CDH5_Y223_V227E] | 1.24
49 | RASGIYFVPKG [APBB1IP_Y340_YF] | 1.2
50 | YRVAGYKTQGG [TIA1_Y383_E384K] | 0.461
51 | ALEKTYNTYRS [B4GALNT2_Y538] | 0.658
52 | GKTQQYDCKWY [BCR_Y751] | 1.05
53 | GLCSYYETSKM [MAGED2_Y449_R446C] | 1.18
54 | ILGRFYERGSI [PAX5_Y73_T75R_YF] | 0.674
55 | GIADDYDKKKL [EIF1_Y54] | 0.943
56 | HQEPVYSVAFS [TBL1X_Y509] | 2.74
57 | VTRLRYPVCFG [ITK_Y336] | 1.07
58 | QRIHNYYEHRY [HCN4_Y554_D553N] | 1.63

Biological target: Hck (UniProt P08631)
Sequence (P08631 whole entry, looked up): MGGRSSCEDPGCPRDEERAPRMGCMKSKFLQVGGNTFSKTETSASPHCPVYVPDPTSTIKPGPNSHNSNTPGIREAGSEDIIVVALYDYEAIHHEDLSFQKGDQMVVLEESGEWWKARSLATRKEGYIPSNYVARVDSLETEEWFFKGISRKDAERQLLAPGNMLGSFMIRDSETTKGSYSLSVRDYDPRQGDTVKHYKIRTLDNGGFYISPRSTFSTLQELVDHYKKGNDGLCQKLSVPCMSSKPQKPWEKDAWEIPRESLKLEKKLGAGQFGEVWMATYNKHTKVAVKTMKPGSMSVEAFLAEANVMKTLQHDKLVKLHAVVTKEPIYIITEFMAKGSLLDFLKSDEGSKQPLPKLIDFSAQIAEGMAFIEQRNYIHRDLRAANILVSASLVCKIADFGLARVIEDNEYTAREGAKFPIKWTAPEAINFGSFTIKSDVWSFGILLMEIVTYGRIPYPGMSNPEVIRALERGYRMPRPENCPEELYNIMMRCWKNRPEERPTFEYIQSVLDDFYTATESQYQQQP
Assay: as above

Row | Sequence | phosphorylation enrichment
59 | SRGLAYPARPA [LEMD2_Y122] | 0.339
60 | LMIKEYLTKEL [BAG3_Y457_E455K] | 0.571
61 | HSGIYYKPESL [L2HGDH_Y103] | 6.44
62 | ELTSVYDSRAR [SENP1_Y349] | 1.62
63 | CEDGNYSPEIS [PTDSS1_Y424_T423N] | 0.668
64 | YVPSFYHAFSG [ACTN4_Y265_S262P] | 1.94
65 | QRCFVYFFSFL [PTEN_Y176_R173C_YF] | 0.65
66 | KKHIPYSEHKS [CSNK1G2_Y206_R207S] | 0.565
67 | QISRDYGVLLE [PRDX3_Y172] | 0.751
68 | SAEKAYHEQFS [TUBA1A_Y282_L286F] | 0.458
69 | TIAIRYSHSRR [ACOXL_Y260] | 0.576
70 | SLDLSYYTTSS [EMD_Y181_P183T] | 0.576
71 | GTYEDYVEGLR [MYL6_Y89] | 0.726
72 | VFLARYGPAWR [CYP2D6_Y124] | 0.548
73 | KKYPDYIQIAR [SGMS2_Y59_M64R] | 0.48
74 | IYHLSYHHNCE [PDE6B_Y227_L228H] | 1.51
75 | VAVVDYVEPSP [TXNRD2_Y70] | 0.454
76 | HPYNSYTYPRL [PAK5_Y316_S312P] | 0.984
77 | EKQARYEIVEE [CDH5_Y223_V227E] | 0.667
78 | RASGIYFVPKG [APBB1IP_Y340_YF] | 8.1
79 | YRVAGYKTQGG [TIA1_Y383_E384K] | 0.366
80 | ALEKTYNTYRS [B4GALNT2_Y538] | 0.438
81 | GKTQQYDCKWY [BCR_Y751] | 0.554
82 | GLCSYYETSKM [MAGED2_Y449_R446C] | 0.926
83 | ILGRFYERGSI [PAX5_Y73_T75R_YF] | 0.486
84 | GIADDYDKKKL [EIF1_Y54] | 0.512
85 | HQEPVYSVAFS [TBL1X_Y509] | 14.2
86 | VTRLRYPVCFG [ITK_Y336] | 0.555
87 | QRIHNYYEHRY [HCN4_Y554_D553N] | 1.33

Test system: Fer (mouse)
Assay: as above

Row | Sequence | phosphorylation enrichment
88 | SRGLAYPARPA [LEMD2_Y122] | 0.288
89 | LMIKEYLTKEL [BAG3_Y457_E455K] | 0.491
90 | HSGIYYKPESL [L2HGDH_Y103] | 0.613
91 | ELTSVYDSRAR [SENP1_Y349] | 0.432
92 | CEDGNYSPEIS [PTDSS1_Y424_T423N] | 0.461
93 | YVPSFYHAFSG [ACTN4_Y265_S262P] | 0.407
94 | QRCFVYFFSFL [PTEN_Y176_R173C_YF] | 1.06
95 | KKHIPYSEHKS [CSNK1G2_Y206_R207S] | 0.72
96 | QISRDYGVLLE [PRDX3_Y172] | 0.637
97 | SAEKAYHEQFS [TUBA1A_Y282_L286F] | 0.394
98 | TIAIRYSHSRR [ACOXL_Y260] | 0.632
99 | SLDLSYYTTSS [EMD_Y181_P183T] | 0.462
100 | GTYEDYVEGLR [MYL6_Y89] | 0.579
101 | VFLARYGPAWR [CYP2D6_Y124] | 0.413
102 | KKYPDYIQIAR [SGMS2_Y59_M64R] | 0.388
103 | IYHLSYHHNCE [PDE6B_Y227_L228H] | 0.671
104 | VAVVDYVEPSP [TXNRD2_Y70] | 0.52
105 | HPYNSYTYPRL [PAK5_Y316_S312P] | 0.674
106 | EKQARYEIVEE [CDH5_Y223_V227E] | 0.56
107 | RASGIYFVPKG [APBB1IP_Y340_YF] | 0.731
108 | YRVAGYKTQGG [TIA1_Y383_E384K] | 0.363
109 | ALEKTYNTYRS [B4GALNT2_Y538] | 0.35
110 | GKTQQYDCKWY [BCR_Y751] | 0.432
111 | GLCSYYETSKM [MAGED2_Y449_R446C] | 1.01
112 | ILGRFYERGSI [PAX5_Y73_T75R_YF] | 0.398
113 | GIADDYDKKKL [EIF1_Y54] | 0.4
114 | HQEPVYSVAFS [TBL1X_Y509] | 24.1
115 | VTRLRYPVCFG [ITK_Y336] | 0.487
116 | QRIHNYYEHRY [HCN4_Y554_D553N] | 0.65
